Reference: US20180057595A1 (CELLDEX THERAPEUTICS, published 2018)

Experiments:
[1] = target: T1, human MET, cell-surface expressed (human, UniProt P08581 25-1390); assay: FACS competition on A549 cells; competitor Ab237C
T1 construct: whole, on cells; Used for all assays on cells that carry wild-type human MET; the cell line is named under assay or readout; also called c-Met; hMET
Experimental: The binding of anti-MET antibodies to cell surface MET was analyzed by competition FACS analysis using A549 NSCLC cells (ATCC cat. no. CCL-185). […] A total of 3×10⁵ A549 NSCLC cells were added per dilution of antibody and incubated on ice for 1 hour. Cells were washed and a 1:100 dilution of PE-labeled goat anti-rat IgG antibody (BioLegend cat. no. 405406) in FACS buffer was added before incubation on ice for 1 hour. […] The geometric mean fluorescence intensity was plotted against antibody concentration. The IC₅₀ of each of the test antibodies was calculated relative to the IC₅₀ of the reference antibody.

[2] = target: T2, human MET-ECD with a His tag (MET-ECD-His) (human, UniProt P08581 25-932); assay: competition ELISA on immobilised MET-ECD; competitor Ab237C
T2 construct: The ELISA sections speak of MET-ECD, MET-ECD-His or His-tagged MET extracellular domain; also called hu-MET-ECD; human cMET ECD
T2 sequence (P08581 other isoform, or with tags, fused parts or gaps): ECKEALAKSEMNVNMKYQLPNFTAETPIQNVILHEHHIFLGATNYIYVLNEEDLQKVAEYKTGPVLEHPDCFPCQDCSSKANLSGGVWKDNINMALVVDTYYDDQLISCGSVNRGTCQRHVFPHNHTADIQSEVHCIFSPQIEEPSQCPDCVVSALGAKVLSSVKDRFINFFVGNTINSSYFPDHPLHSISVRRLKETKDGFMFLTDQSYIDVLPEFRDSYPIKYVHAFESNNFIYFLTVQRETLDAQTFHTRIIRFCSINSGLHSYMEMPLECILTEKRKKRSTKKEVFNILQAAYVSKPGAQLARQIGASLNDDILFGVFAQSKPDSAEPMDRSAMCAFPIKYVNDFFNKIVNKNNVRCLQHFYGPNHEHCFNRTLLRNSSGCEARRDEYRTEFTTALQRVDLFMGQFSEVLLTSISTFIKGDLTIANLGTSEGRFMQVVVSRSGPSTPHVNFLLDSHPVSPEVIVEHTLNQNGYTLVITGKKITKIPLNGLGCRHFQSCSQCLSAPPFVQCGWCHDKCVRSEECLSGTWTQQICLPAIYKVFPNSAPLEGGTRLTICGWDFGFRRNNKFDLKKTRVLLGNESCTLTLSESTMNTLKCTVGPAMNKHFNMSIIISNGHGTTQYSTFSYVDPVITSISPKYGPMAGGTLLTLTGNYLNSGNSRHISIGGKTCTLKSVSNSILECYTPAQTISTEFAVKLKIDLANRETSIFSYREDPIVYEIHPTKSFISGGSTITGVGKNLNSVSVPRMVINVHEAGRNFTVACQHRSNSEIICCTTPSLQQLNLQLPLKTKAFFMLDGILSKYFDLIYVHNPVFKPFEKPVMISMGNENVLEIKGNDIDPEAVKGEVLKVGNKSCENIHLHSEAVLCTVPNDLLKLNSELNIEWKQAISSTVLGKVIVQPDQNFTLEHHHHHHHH
Experimental: The binding of anti-MET antibodies to recombinant MET extracellular domain (“MET-ECD”) was analyzed by competition ELISA. […] The reaction was stopped with 3M HCl, absorbance read at 450 nm on a Dynex Technologies MRX TC II plate reader and the binding curves plotted. Binding curves were used to calculate IC₅₀ values for each test antibody normalized to the IC₅₀ of the reference antibody.

T1 sequence (P08581 25-1390): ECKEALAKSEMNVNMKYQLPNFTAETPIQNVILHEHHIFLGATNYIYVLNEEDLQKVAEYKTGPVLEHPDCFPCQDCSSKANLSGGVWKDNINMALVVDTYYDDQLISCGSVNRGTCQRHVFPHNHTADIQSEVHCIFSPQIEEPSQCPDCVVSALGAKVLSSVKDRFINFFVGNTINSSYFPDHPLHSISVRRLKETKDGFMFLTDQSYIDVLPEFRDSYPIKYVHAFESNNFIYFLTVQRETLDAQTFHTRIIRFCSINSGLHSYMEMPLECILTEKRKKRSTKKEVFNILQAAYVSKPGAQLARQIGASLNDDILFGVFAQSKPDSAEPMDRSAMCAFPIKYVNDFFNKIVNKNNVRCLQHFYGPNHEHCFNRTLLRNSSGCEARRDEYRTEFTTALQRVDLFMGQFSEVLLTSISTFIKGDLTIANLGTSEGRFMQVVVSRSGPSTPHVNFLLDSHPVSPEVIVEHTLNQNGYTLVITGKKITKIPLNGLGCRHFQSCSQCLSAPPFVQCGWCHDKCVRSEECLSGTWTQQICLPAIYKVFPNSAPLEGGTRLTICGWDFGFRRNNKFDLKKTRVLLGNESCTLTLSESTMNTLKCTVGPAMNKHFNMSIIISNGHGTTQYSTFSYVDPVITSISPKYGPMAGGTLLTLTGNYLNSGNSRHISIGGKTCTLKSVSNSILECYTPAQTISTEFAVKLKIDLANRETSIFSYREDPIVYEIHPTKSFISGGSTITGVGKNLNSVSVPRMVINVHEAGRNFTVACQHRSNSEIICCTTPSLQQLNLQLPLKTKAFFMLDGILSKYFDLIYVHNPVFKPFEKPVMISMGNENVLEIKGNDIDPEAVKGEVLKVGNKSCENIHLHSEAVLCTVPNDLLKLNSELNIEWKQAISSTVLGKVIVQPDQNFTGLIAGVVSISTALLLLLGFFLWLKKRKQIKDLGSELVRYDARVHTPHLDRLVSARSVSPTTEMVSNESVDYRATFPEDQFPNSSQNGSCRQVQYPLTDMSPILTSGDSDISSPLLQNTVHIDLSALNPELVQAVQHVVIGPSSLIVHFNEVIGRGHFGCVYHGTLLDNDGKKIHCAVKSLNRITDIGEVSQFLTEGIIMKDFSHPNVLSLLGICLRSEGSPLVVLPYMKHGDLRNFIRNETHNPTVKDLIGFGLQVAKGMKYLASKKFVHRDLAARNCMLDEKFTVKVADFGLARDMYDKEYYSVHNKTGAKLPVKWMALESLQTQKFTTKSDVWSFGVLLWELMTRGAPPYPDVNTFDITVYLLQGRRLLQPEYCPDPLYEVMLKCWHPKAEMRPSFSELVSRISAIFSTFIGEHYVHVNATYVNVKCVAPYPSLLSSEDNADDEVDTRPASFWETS

relative IC50 (against Ab237C) [1]: ~1.22 relative to IC50 of Ab237C | IC50 relative to the IC50 of Ab237C [2]: ~0.97 relative to IC50 of Ab237C
B1: Ab241 (antibody, human IgG1, V domains shown)
VH: EVQLVESGGGLVQPGGSLKLSCAASGFTFSDSYMAWVRQAPGKGLEWVASISSDGGGTYYRDSVKGRFTISRDNAKSSLYLQMDSLRTEDTATYYCTTEGIYTTDYYPYCFNYWGQGVMVTVSS
VL: DIQMTQSPSSLSASVGDRVTITCLASADIHSNLAWYQQKPGKAPQLLIYYGNNLNDGVPSRFSGSGSGTDYTLKINSLQSEDVAIYFCQQSYDSPPTFGQGTKLEIKR
notes: Composite human (humanized) antibody, human IgG1, kappa
